Data on one substance can be found in publication doi:10.1101/2024.04.02.587845.

For assay [1], the target named is GST-YFP-6His-PANT^R20A (Arabidopsis). Description: MST.
Assay [2] concerns the target GST-YFP-6His-PANT^WT (PANT domain of Arabidopsis SRFR1) (Arabidopsis). Description: MST.

“synthetic P1 peptide (P1 segment of IDR1 of SRFR1)”: the Kd came to 956 µM in assay [1] and 395 µM in assay [2].

In general, Kd refers to the equilibrium constant for the complex coming apart.
